Experimental data published in the supplement of paper PMC5998384.

Experiments:
HeLa Kyoto [1] = test: solubility in G1/S (NP-40 vs SDS abundance) (log2 ratio); higher = more soluble; details: cell cycle stage: G1/S
HeLa Kyoto [2] = test: melting temperature (median over replicates), in situ; higher = more thermally stable
HeLa Kyoto [3] = test: solubility change mitosis vs G1/S (difference of NP-40 vs SDS log2 ratios) (log2 ratio difference); higher = more soluble in mitosis
HeLa Kyoto [4] = test: thermal stability score vs G1/S (z-score of summed log2 fold changes over temperatures); higher = more thermally stable than in G1/S
[5] = cell cycle stage: early G1 (4.5 h after nocodazole release)
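Wherever melting temperature (median over replicates), in situ is given: HeLa Kyoto cells synchronized by double thymidine or nocodazole block, proteins quantified by TMT10plex mass spectrometry, three independent biological replicates.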
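Wherever solubility change mitosis vs G1/S (difference of NP-40 vs SDS log2 ratios) is given: synchronized HeLa Kyoto cells (double thymidine block for G1/S, nocodazole release for mitosis), protein amounts in NP-40 versus SDS lysates quantified by mass spectrometry, three biological replicates.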
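Wherever solubility in G1/S (NP-40 vs SDS abundance) is given: HeLa Kyoto cells arrested at G1/S by double thymidine block, proteins quantified by TMT10plex mass spectrometry in mild NP-40 versus SDS extracts, three biological replicates.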
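Wherever thermal stability score vs G1/S (z-score of summed log2 fold changes over temperatures) is given: synchronized HeLa Kyoto cells, proteins quantified by TMT10plex mass spectrometry, three biological replicates, mitosis taken 0.5 h after nocodazole release, G1/S directly after double thymidine block.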

MRPGGERPVEGGACNGRSELELLKLRSAECIDEAAERLGALSRAIWSQPELAYEEHHAHRVLTHFFEREPPAASWAVQPHYQLPTAFRAEWEPPEARAPSATPRPLHLGFLCEYDALPGIGHACGHNLIAEVGAAAALGVRGALEGLPRPPPPVKVVVLGTPAEEDGGGKIDLIEAGAFTNLDVVFMAHPSQENAAYLPDMAEHDVTVKYYGKASHSASYPWEGLNALDAAVLAYNNLSVFRQQMKPTWRVHGIIKNGGVKPNIIPSYSELIYYFRAPSMKELQVLTKKAEDCFRAAALASGCTVEIKGGAHDYYNVLPNKSLWKAYMENGRKLGIEFISEDTMLNGPSGSTDFGNVSFVVPGIHPYFHIGSNALNHTEQYTEAAGSQEAQFYTLRTAKALAMTALDVIFKPELLEGIREDFKLKLQEEQFVNAVE [PM20D2]
solubility in G1/S (log2) (HeLa Kyoto [1]): 0.167
melting temperature (HeLa Kyoto [2]; cell cycle stage: G1/S): 52.7 °C
melting temperature (HeLa Kyoto [2]; cell cycle stage: mitosis): 52.2 °C
solubility change mitosis (log2) (HeLa Kyoto [3]): 0.0574
thermal stability score (HeLa Kyoto [4]; [5]): -0.942
thermal stability score (HeLa Kyoto [4]; cell cycle stage: mitosis): -1.84

MRPRKAFLLLLLLGLVQLLAVAGAEGPDEDSSNRENAIEDEEEEEEEDDDEEEDDLEVKEENGVLVLNDANFDNFVADKDTVLLEFYAPWCGHCKQFAPEYEKIANILKDKDPPIPVAKIDATSASVLASRFDVSGYPTIKILKKGQAVDYEGSRTQEEIVAKVREVSQPDWTPPPEVTLVLTKENFDEVVNDADIILVEFYAPWCGHCKKLAPEYEKAAKELSKRSPPIPLAKVDATAETDLAKRFDVSGYPTLKIFRKGRPYDYNGPREKYGIVDYMIEQSGPPSKEILTLKQVQEFLKDGDDVIIIGVFKGESDPAYQQYQDAANNLREDYKFHHTFSTEIAKFLKVSQGQLVVMQPEKFQSKYEPRSHMMDVQGSTQDSAIKDFVLKYALPLVGHRKVSNDAKRYTRRPLVVVYYSVDFSFDYRAATQFWRSKVLEVAKDFPEYTFAIADEEDYAGEVKDLGLSESGEDVNAAILDESGKKFAMEPEEFDSDTLREFVTAFKKGKLKPVIKSQPVPKNNKGPVKVVVGKTFDSIVMDPKKDVLIEFYAPWCGHCKQLEPVYNSLAKKYKGQKGLVIAKMDATANDVPSDRYKVEGFPTIYFAPSGDKKNPVKFEGGDRDLEHLSKFIEEHATKLSRTKEEL [PDIA4]
solubility in G1/S (log2) (HeLa Kyoto [1]): 0.264
melting temperature (HeLa Kyoto [2]; cell cycle stage: G1/S): 53.9 °C
melting temperature (HeLa Kyoto [2]; cell cycle stage: mitosis): 54.4 °C
solubility change mitosis (log2) (HeLa Kyoto [3]): -0.0655
thermal stability score (HeLa Kyoto [4]; [5]): 3.99
thermal stability score (HeLa Kyoto [4]; cell cycle stage: mitosis): 4.66

MERAVQGTDGGGGSNSSSRSSSRATSAGSSPSCSLAGRGVSSRSAAAGLGGGGSRSSPGSVAASPSGGGGRRREPALEGVLSKYTNLLQGWQNRYFVLDFEAGILQYFVNEQSKHQKPRGVLSLSGAIVSLSDEAPHMLVVYSANGEMFKLRAADAKEKQFWVTQLRACAKYHMEMNSKSAPSSRSRSLTLLPHGTPNSASPCSQRHLSVGAPGVVTITHHKSPAAARRAKSQYSGQLHEVREMMNQVEGQQKNLVHAIESLPGSGPLTALDQDLLLLKATSAATLSCLGECLNLLQQSVHQAGQPSQKPGASENILGWHGSKSHSTEQLKNGTLGSLPSASANITWAILPNSAEDEQTSQPEPEPNSGSELVLSEDEKSDNEDKEETELGVMEDQRSIILHLISQLKLGMDLTKVVLPTFILEKRSLLEMYADFMAHPDLLLAITAGATPEERVICFVEYYLTAFHEGRKGALAKKPYNPIIGETFHCSWEVPKDRVKPKRTASRSPASCHEHPMADDPSKSYKLRFVAEQVSHHPPISCFYCECEEKRLCVNTHVWTKSKFMGMSVGVSMIGEGVLRLLEHGEEYVFTLPSAYARSILTIPWVELGGKVSINCAKTGYSATVIFHTKPFYGGKVHRVTAEVKHNPTNTIVCKAHGEWNGTLEFTYNNGETKVIDTTTLPVYPKKIRPLEKQGPMESRNLWREVTRYLRLGDIDAATEQKRHLEEKQRVEERKRENLRTPWKPKYFIQEGDGWVYFNPLWKAH [OSBPL10]
solubility in G1/S (log2) (HeLa Kyoto [1]): 0.0171
melting temperature (HeLa Kyoto [2]; cell cycle stage: G1/S): 48.6 °C
melting temperature (HeLa Kyoto [2]; cell cycle stage: mitosis): 51 °C
solubility change mitosis (log2) (HeLa Kyoto [3]): 0.13
thermal stability score (HeLa Kyoto [4]; [5]): -0.0143
thermal stability score (HeLa Kyoto [4]; cell cycle stage: mitosis): -0.526

KIAA0930
solubility in G1/S (log2) (HeLa Kyoto [1]): -0.0317
melting temperature (HeLa Kyoto [2]; cell cycle stage: G1/S): 52.6 °C
melting temperature (HeLa Kyoto [2]; cell cycle stage: mitosis): 52.3 °C
solubility change mitosis (log2) (HeLa Kyoto [3]): -0.03
thermal stability score (HeLa Kyoto [4]; [5]): 0.34
thermal stability score (HeLa Kyoto [4]; cell cycle stage: mitosis): 0.505

MVLSQRQRDELNRAIADYLRSNGYEEAYSVFKKEAELDVNEELDKKYAGLLEKKWTSVIRLQKKVMELESKLNEAKEEFTSGGPLGQKRDPKEWIPRPPEKYALSGHRSPVTRVIFHPVFSVMVSASEDATIKVWDYETGDFERTLKGHTDSVQDISFDHSGKLLASCSADMTIKLWDFQGFECIRTMHGHDHNVSSVAIMPNGDHIVSASRDKTIKMWEVQTGYCVKTFTGHREWVRMVRPNQDGTLIASCSNDQTVRVWVVATKECKAELREHEHVVECISWAPESSYSSISEATGSETKKSGKPGPFLLSGSRDKTIKMWDVSTGMCLMTLVGHDNWVRGVLFHSGGKFILSCADDKTLRVWDYKNKRCMKTLNAHEHFVTSLDFHKTAPYVVTGSVDQTVKVWECR [PAFAH1B1]
solubility in G1/S (log2) (HeLa Kyoto [1]): -0.211
melting temperature (HeLa Kyoto [2]; cell cycle stage: G1/S): 55.8 °C
melting temperature (HeLa Kyoto [2]; cell cycle stage: mitosis): 55.5 °C
solubility change mitosis (log2) (HeLa Kyoto [3]): -0.149
thermal stability score (HeLa Kyoto [4]; [5]): 1.3
thermal stability score (HeLa Kyoto [4]; cell cycle stage: mitosis): -0.762

MLGSLVLRRKALAPRLLLRLLRSPTLRGHGGASGRNVTTGSLGEPQWLRVATGGRPGTSPALFSGRGAATGGRQGGRFDTKCLAAATWGRLPGPEETLPGQDSWNGVPSRAGLGMCALAAALVVHCYSKSPSNKDAALLEAARANNMQEVSRLLSEGADVNAKHRLGWTALMVAAINRNNSVVQVLLAAGADPNLGDDFSSVYKTAKEQGIHSLEDGGQDGASRHITNQWTSALEFRRWLGLPAGVLITREDDFNNRLNNRASFKGCTALHYAVLADDYRTVKELLDGGANPLQRNEMGHTPLDYAREGEVMKLLRTSEAKYQEKQRKREAEERRRFPLEQRLKEHIIGQESAIATVGAAIRRKENGWYDEEHPLVFLFLGSSGIGKTELAKQTAKYMHKDAKKGFIRLDMSEFQERHEVAKFIGSPPGYVGHEEGGQLTKKLKQCPNAVVLFDEVDKAHPDVLTIMLQLFDEGRLTDGKGKTIDCKDAIFIMTSNVASDEIAQHALQLRQEALEMSRNRIAENLGDVQISDKITISKNFKENVIRPILKAHFRRDEFLGRINEIVYFLPFCHSELIQLVNKELNFWAKRAKQRHNITLLWDREVADVLVDGYNVHYGARSIKHEVERRVVNQLAAAYEQDLLPGGCTLRITVEDSDKQLLKSPELPSPQAEKRLPKLRLEIIDKDSKTRRLDIRAPLHPEKVCNTI [CLPB]
solubility in G1/S (log2) (HeLa Kyoto [1]): 0.0358
melting temperature (HeLa Kyoto [2]; cell cycle stage: G1/S): 52 °C
melting temperature (HeLa Kyoto [2]; cell cycle stage: mitosis): 51.8 °C
solubility change mitosis (log2) (HeLa Kyoto [3]): -0.0294
thermal stability score (HeLa Kyoto [4]; [5]): 0.555
thermal stability score (HeLa Kyoto [4]; cell cycle stage: mitosis): 0.467
